Laboratory results: patent US20170210818A1 (CALIFORNIA INSTITUTE FOR BIOMEDICAL RESEARCH, published 2017)

Target: T1, CD19 on Nalm-6 cells (UniProt P15391 20-556, limits assumed)
T1 construct: whole, on cells; also called Nalm-6 cells (CD19 positive cells)
T1 sequence (looked up): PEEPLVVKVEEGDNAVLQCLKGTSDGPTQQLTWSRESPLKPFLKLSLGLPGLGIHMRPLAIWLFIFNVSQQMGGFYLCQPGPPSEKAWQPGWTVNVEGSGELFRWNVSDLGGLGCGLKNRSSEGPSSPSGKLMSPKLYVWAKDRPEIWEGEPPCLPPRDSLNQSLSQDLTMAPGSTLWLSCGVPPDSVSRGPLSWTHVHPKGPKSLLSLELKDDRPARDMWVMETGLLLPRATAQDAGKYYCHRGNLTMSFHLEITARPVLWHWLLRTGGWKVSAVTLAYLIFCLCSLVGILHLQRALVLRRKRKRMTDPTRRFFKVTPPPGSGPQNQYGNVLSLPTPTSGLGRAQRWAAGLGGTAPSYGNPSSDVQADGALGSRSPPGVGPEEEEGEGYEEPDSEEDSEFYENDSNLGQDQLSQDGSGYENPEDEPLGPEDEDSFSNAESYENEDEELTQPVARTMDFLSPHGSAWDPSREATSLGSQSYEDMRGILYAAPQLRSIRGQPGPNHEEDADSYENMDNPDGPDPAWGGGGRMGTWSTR
Assay: flow cytometry on Nalm-6 cells, 10 nM, fluorescent anti-human IgG secondary antibody
Method: Nalm-6 and K562 cells were cultured according to vendor's protocol. Cells were centrifuged and blocked in 1× PBS with 10% FBS at 4° C. for 1 hour. […] The cell suspensions were shaken for 1 hour at 4° C. The cells were washed 3 times with PBS. The cells were incubated with a secondary antibody (e.g., Fluorescein-anti-human IgG or A488-anti-hIgG) at 4° C. for 1 hour. The cells were washed 3 times with PBS and resuspended in PBS. The cellular fluorescence distribution was determined by flow cytometry.

B1: anti-CD19ScFv-UCHT1-CL(Fab) (bispecific antibody)
heavy: EVQLQQSGPELVKPGASMKISCKASGYSFTGYTMNWVKQSHGKNLEWMGLINPYKGVSTYNQKFKDKATLTVDKSSSTAYMELLSLTSEDSAVYYCARSGYYGDSDWYFDVWGQGTTLTVFSASTKGPSVFPLAPSSKSTSGGTAALGCLVKDYFPEPVTVSWNSGALTSGVHTFPAVLQSSGLYSLSSVVTVPSSSLGTQTYICNVNHKPSNTKVDKKVEPKSC
light: DIQMTQTTSSLSASLGDRVTISCRASQDIRNYLNWYQQKPDGTVKLLIYYTSRLHSGVPSKFSGSGSGTDYSLTISNLEQEDIATYFCQQGNTLPWTFAGGTKLEIKRTVAAPSVFIFPPSDEQLKSGTASVVCLLNNFYPREAKVQWKVDNALQSGNSQESVTEQDSGGGGSGGGGSGGGGSEVKLQESGPGLVAPSQSLSVTCTVSGVSLPDYGVSWIRQPPRKGLEWLGVIWGSETTYYNSALKSRLTIIKDNSKSQVFLKMNSLQTDDTAIYYCAKHYYYGGSYAMDYWGQGTSVTVSSGGGGSGGGGSGGGGSDIQMTQTTSSLSASLGDRVTISCRASQDISKYLNWYQQKPDGTVKLLIYHTSRLHSGVPSRFSGSGSGTDYSLTISNLEQEDIATYFCQQGNTLPYTFGGGTKLEIGGGGSDSTYSLSSTLTLSKADYEKHKVYACEVTHQGLSSPVTKSFNRGEC
binding result: binds
